Here are results for one molecule from patent US20110189776, “PROKARYOTIC RNAi-LIKE SYSTEM AND METHODS OF USE” (University of Georgia Research Foundation, Inc., published 2011).

For the data set, the target named is native psiRNP containing Cmr1-1, Cmr1-2, Cmr2, Cmr3, Cmr4, Cmr5, Cmr6 (Pyrococcus furiosus, UniProt Q8U1S5;Q8U3V3;Q8U1S6;Q8U1S7;Q8U1S9;Q8U1T0;Q8U1T1 …). Briefly: EMSA; native gel Northern with psiRNA 7.01 probe; mobility shift lost on deproteinization. As to conditions: tags: S-sepharose peak fraction, endogenous psiRNAs; other co-purifying proteins present.

With AUUGAAAGUUGUAGUAUGCGGUCCUUGCGGCUGAGAGCACUUCAG (ssRNA) [psiRNA 7.01, 45 nt], the binding result is recorded as “binds”.
